# Laboratory results taken from PMC10714925.
# Tested on: Clp-GST (Xanthomonas oryzae pv. oryzae PXO99A)
# Assay: MST
# Conditions: MST: 50 mM Tris pH 7.5, 150 mM NaCl, 10 mM MgCl2, 0.05% Tween 20, 25 C, buffer not given
substance,measurement,value
"xanfur promoter, FAM-labeled",Kd,0.687 nM
